Legend:
[1] = target: H5 A/Victoria/149/2024 HA ectodomain (influenza A virus H5N1 A/Victoria/149/2024)
[2] = target: H5 A/Sichuan/26221/2014 HA ectodomain (influenza A virus H5N6 A/Sichuan/26221/2014)
[3] = target: H5 A/Cambodia/2302009/2023 HA ectodomain (influenza A virus H5N1 A/Cambodia/2302009/2023)
[4] = target: H5 A/Indonesia/05/2005 HA ectodomain (influenza A virus H5N1 A/Indonesia/05/2005)

Binder | neutralization IC80, R4ΔPB1 reporter virus H5N1 A/Victoria/149/2024 [1] [µg/mL] | neutralization IC80, R4ΔPB1 reporter virus H5N6 A/Sichuan/26221/2014 [2] [µg/mL] | neutralization IC80, R4ΔPB1 reporter virus H5N1 A/Cambodia/2302009/2023 [3] [µg/mL] | neutralization IC80, R4ΔPB1 reporter virus H5N1 A/Indonesia/05/2005 [4] [µg/mL]
326-289.74 (IgG1) (antibody, V domains shown) VH: QVQLVQSGAEVKKPGSSVKVSCKASGGTFSIYTFTWVRQAPGHGLEWMGGILPISGSAKYAQKFLGRVTITADESTSTVYMELSSLRSEDTAIYYCARDPYSNYFYGLDVWGQGTTVTVSS VL: EIVLTQSPVTLSLSPGERATLSCRASQSVSRFLAWYQQKPGQAPRLLFYDASTRATGIPARFSGTGSGTDFTLTISGLEPEDFAVYYCQQRSNWPPEYSFGQGTKLEIK | 0.335 | 0.006 | 0.133 | 0.014
326-366.26 (IgG1) (antibody, V domains shown) VH: QMQLQESGPGLVKPSGTLSLTCAVSGGSISNSHWWSWVRQSPGKGLEWIGEIYHSGSTYYNPSLKSRLTISVDKSKNQFSLKLTSVTAADTAVYFCARGLGWEQGGYRAFDMWGQGTTVTVSS VL: EIVMTQSPATLSVSPGERVTLSCRASQSVGSSLAWYQQKPGQAPRLLIYAASTRATGIPARFSGSGSGTEFTLTISSLQSEDFAVYYCQQHYNWPPLTFGGGTKVEIK | 0.193 | 0.008 | > 25 | 0.009

Source: publication PMC12578633
